# Reference: FireProtDB (doi:10.1073/pnas.88.5.1706)
# Details: Enterobacteria phage fd; pH 7; 25 °C; GdnHCl; CD; MOPS 50 mM; NaCl 100 mM; reversible: yes; whole UniProt chain shown
protein,measurement,value
"DNA-Binding protein G5P wild type, P69542 (protein) MIKVEIKPSQAQFTTRSGVSRQGKPYSLNEQLCYVDLGNEYPVLVKITLDEGQPAYAPGLYTVHLSSFKVGQFGSLMIDRLRLVPAK",denaturant m value,3.6 kcal/mol/M
same,denaturant midpoint (higher = more stable),2.61 M
same,unfolding free energy,9 kcal/mol
